Measurements published in publication PMC12592377.

Molecular target: HIV-1 capsid (CA) protein (HIV-1)
Test: cryo-EM structure; cryo-ET of cryo-FIB lamellae with template matching and subtomogram averaging (C6 symmetry kept) of CA hexamers in capsid lattices of isolated VLP cores incubated with permeabilized CEM cells, EGS-fixed; cores outside the nucleus (approaching and docking), traversing the NPC and imported

Substance: HIV-1 capsid (CA) protein (natural protein)
- stoichiometry N: 6
